From PMC7927982

What follows are binders tested against T1, LARP1 La-Module (Homo sapiens, UniProt Q6PKG0-3 310-540) (assay: EMSA).

Question: Does GUGGCGCCUCGGAGGCGUUCAGCUGCUUCAAG (ssRNA) [RPS6 5'UTR delTOP] bind?
Answer: no binding

Question: Does CCUUUUCCAAGCGGCUGCCGAAG (ssRNA) [RPL13A 5'UTR] bind?
Answer: binds

Question: Does AAGCGGCUGCCGAAG (ssRNA) [RPL13A 5'UTR delTOP] bind?
Answer: no binding

Question: Does CUCUCUUCCACAGGAGGCCUACACGCCGCCGCUUGUGCUGCAGCC (ssRNA) [RPS18 5'UTR] bind?
Answer: no binding

Question: Does CCUUCUCCCCGGCGGUUAGUGCUGAGAGUGCGGAGUGUGUG (ssRNA) [PABPC1 42-mer] bind?
Answer: no binding

Question: Does AAGAUUUUUUGAGUAACAAAU (ssRNA) [RPS6 3'UTR] bind?
Answer: no binding

Question: Does CCUCUUUUCCGUGGCGCCUCGGAGGCGUUCAGCUGCUUCAAG (ssRNA) [RPS6 5'UTR] bind?
Answer: binds

What follows are binders tested against T1, LARP1 La-Module (assay: competition).

Question: Does GGGGGGGGGGGGGGGGGGG (ssRNA) [poly(G) 19-mer] bind?
Answer: binds

Target: T1, LARP1 La-Module
Assay: EMSA
Remark: another data set of the same source

Question: How did the Kd turn out when AAAAAAAAAAAAAAAAAAAAAAAAA (ssRNA) [poly(A) 25-mer] was run?
Answer: 40 ± 1 nM
